B1: SERPINB5 (parent)
chain: FPESETKECPFRVNKVCGAACSSK
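Note: lentivirally expressed fusions sorted by FACS into six bins by GFP to DsRed ratio, PSI derived from sequencing read proportions per bin multiplied by bin number.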

Variants of: B1
Test: protein stability index of a GFP-peptide fusion (GPS, HEK-293T) (PSI 1-6); higher = more stable
Conditions: c terminus: a fixed tail appended
Work on FPESETKECPFRVNKVCGKACSSK yielded a protein stability index of 2.51. Work on FPESETKECPFRVNKVCGNACSSK yielded a protein stability index of 2.61. FPESETKECPFRVNKVCGDACSSK gave a protein stability index of 3.03. FPESETKECPFRVNKVCGLACSSK gave a protein stability index of 2.96. For FPESETKECPFRVNKVCGTACSSK, the protein stability index was 2.62. With FPESETKECPFRVNKVCGRACSSK the protein stability index was 2.52. For FPESETKECPFRVNKVCGQACSSK, the protein stability index was 2.7. Work on FPESETKECPFRVNKVCGSACSSK yielded a protein stability index of 2.92. With FPESETKECPFRVNKVCGWACSSK the protein stability index was 2.08. Variant FPESETKECPFRVNKVCGVACSSK has a protein stability index of 2.41. Work on FPESETKECPFRVNKVCGHACSSK yielded a protein stability index of 2.51. For FPESETKECPFRVNKVCGEACSSK, the protein stability index was 2.5. Variant FPESETKECPFRVNKVCGGACSSK has a protein stability index of 2.81. In the case of FPESETKECPFRVNKVCGIACSSK, the protein stability index is reported as 2.63. Variant FPESETKECPFRVNKVCGMACSSK has a protein stability index of 2.36. For FPESETKECPFRVNKVCGPACSSK, the protein stability index was 2.08. FPESETKECPFRVNKVCGYACSSK gave a protein stability index of 2.29. For FPESETKECPFRVNKVCGFACSSK, the protein stability index was 2.02. Variant FPESETKECPFRVNWVCGAACSSK has a protein stability index of 1.32. Work on FPESETKECPFRVNTVCGAACSSK yielded a protein stability index of 2.48. With FPESETKECPFRVNYVCGAACSSK the protein stability index was 2.4. Work on FPESETKECPFRVNVVCGAACSSK yielded a protein stability index of 2.1. In the case of FPESETKECPFRVNKVCGAACVSK, the protein stability index is reported as 2.1. FPESETKECPFRVNKVCGAACLSK showed a protein stability index of 1.93. FPESETKECPFRVNKVCGAACWSK gave a protein stability index of 2.03. Work on FPESETKECPFRVNKVCGAACMSK yielded a protein stability index of 2.4. FPESETKECPFRVNKVCGAACCSK showed a protein stability index of 2.27. Work on FPESETKECPFRVNKVCGAACQSK yielded a protein stability index of 2.66. For FPESETKECPFRVNKVCGAACHSK, the protein stability index was 2.55. Work on FPESETKECPFRVNKVCGAACNSK yielded a protein stability index of 2.62. FPESETKECPFRVNKVCGAACGSK gave a protein stability index of 3.07. Variant FPESETKECPFRVNKVCGAACYSK has a protein stability index of 2.46. For FPESETKECPFRVNKVCGAACTSK, the protein stability index was 2.39. FPESETKECPFRVNKVCGAACISK gave a protein stability index of 2.27. FPESETKECPFRVNKVCGAACKSK gave a protein stability index of 2.39. Variant FPESETKECPFRVNKVCGAACASK has a protein stability index of 3.52. For FPESETKECPFRVNKVCGAACDSK, the protein stability index was 2.66. With FPESETKECPFRVNKVCGAACPSK the protein stability index was 2.67. With FPESETKECPFRVNKVCGAACRSK the protein stability index was 2.36. Work on FPESETKECPFRVNKVCGAACESK yielded a protein stability index of 2.57. FPESETKECPFRVNKVCGAACFSK gave a protein stability index of 1.66. For FPESETKECPFRVNKVCNAACSSK, the protein stability index was 2.59. Work on FPESETKECPFRVNKVCFAACSSK yielded a protein stability index of 2.09. With FPESETKECPFRVNKVCIAACSSK the protein stability index was 2.1. In the case of FPESETKECPFRVNKVCYAACSSK, the protein stability index is reported as 2.09. Work on FPESETKECPFRVNKVCMAACSSK yielded a protein stability index of 2.56. FPESETKECPFRVNKVCHAACSSK gave a protein stability index of 2.59. Variant FPESETKECPFRVNKVCDAACSSK has a protein stability index of 2.89. Variant FPESETKECPFRVNKVCWAACSSK has a protein stability index of 3.39. Variant FPESETKECPFRVNKVCAAACSSK has a protein stability index of 2.65. In the case of FPESETKECPFRVNKVCQAACSSK, the protein stability index is reported as 2.66. FPESETKECPFRVNKVCPAACSSK showed a protein stability index of 2.42. Variant FPESETKECPFRVNKVCKAACSSK has a protein stability index of 3.24. FPESETKECPFRVNKVCVAACSSK gave a protein stability index of 1.75. Work on FPESETKECPFRVNKVCTAACSSK yielded a protein stability index of 2.35. FPESETKECPFRVNKVCEAACSSK gave a protein stability index of 2.6. Work on FPESETKECPFRVNKVCCAACSSK yielded a protein stability index of 2.54. FPESETKECPFRVNKVCRAACSSK gave a protein stability index of 2.43. For FPESETKECPFRVNKVCLAACSSK, the protein stability index was 2.05. For FPESETKECPFRVNKVCSAACSSK, the protein stability index was 3.42. FPESETKECPFRVNKVCGAACSHK gave a protein stability index of 3.33. Work on FPESETKECPFRVNKVCGAACSPK yielded a protein stability index of 2.39. With FPESETKECPFRVNKVCGAACSIK the protein stability index was 2.26. For FPESETKECPFRVNKVCGAACSKK, the protein stability index was 2.97. FPESETKECPFRVNKVCGAACSAK gave a protein stability index of 2.41. Work on FPESETKECPFRVNKVCGAACSLK yielded a protein stability index of 2.4. FPESETKECPFRVNKVCGAACSFK showed a protein stability index of 2.23. Variant FPESETKECPFRVNKVCGAACSGK has a protein stability index of 2.4. FPESETKECPFRVNKVCGAACSYK gave a protein stability index of 2.29. FPESETKECPFRVNKVCGAACSEK gave a protein stability index of 3.16. In the case of FPESETKECPFRVNKVCGAACSVK, the protein stability index is reported as 2.42. FPESETKECPFRVNKVCGAACSTK gave a protein stability index of 2.19. Variant FPESETKECPFRVNKVCGAACSNK has a protein stability index of 2.96. Work on FPESETKECPFRVNKVCGAACSWK yielded a protein stability index of 1.93. FPESETKECPFRVNKVCGAACSQK showed a protein stability index of 2.35. In the case of FPESETKECPFRVNKVCGAACSCK, the protein stability index is reported as 2.66. FPESETKECPFRVNKVCGAACSRK showed a protein stability index of 2.02. Variant FPESETKECPFRVNKVCGAACSMK has a protein stability index of 2.39. Work on FPESETKECPFRVNKVCGAACSDK yielded a protein stability index of 2.78. In the case of FPESETKECPFRVNKVTGAACSSK, the protein stability index is reported as 2.68. FPESETKECPFRVNKVKGAACSSK showed a protein stability index of 3.12. In the case of FPESETKECPFRVNKVFGAACSSK, the protein stability index is reported as 2.79. FPESETKECPFRVNKVYGAACSSK gave a protein stability index of 2.51. FPESETKECPFRVNKVSGAACSSK gave a protein stability index of 3.13. For FPESETKECPFRVNKVMGAACSSK, the protein stability index was 2.49. Work on FPESETKECPFRVNKVEGAACSSK yielded a protein stability index of 2.98. Variant FPESETKECPFRVNKVVGAACSSK has a protein stability index of 2.88. Variant FPESETKECPFRVNKVIGAACSSK has a protein stability index of 3.16. For FPESETKECPFRVNKVAGAACSSK, the protein stability index was 3.29. FPESETKECPFRVNKVRGAACSSK gave a protein stability index of 2.48. Variant FPESETKECPFRVNKVNGAACSSK has a protein stability index of 2.99. FPESETKECPFRVNKVWGAACSSK showed a protein stability index of 1.76. Work on FPESETKECPFRVNKVLGAACSSK yielded a protein stability index of 2.47. For FPESETKECPFRVNKVDGAACSSK, the protein stability index was 2.81.

Source: the supplement of paper PMC10567573
